Patent US11402384B2 (Duke University, priority 2015, dated 2022)
Where two headings read alike, the source gives them in different places.

Test: Ratiometric fluorescence glucose titration of fluorescent conjugates
Type: binding
Design: key to Shape (fluorescence response to glucose) / Change (fluorescence response to glucose): m, monochromatic; d, dichromatic (i.e. spectral shape change); 0, no change
Details: tsGBP2 cysteine scan; for Kd: ratiometric fit at λ1 and λ2
From the text: Semi-synthetic FRSs can be engineered by site-specifically attaching thiol-reactive, environmentally sensitive fluorophores that respond to ligand-mediated conformational changes. Identification of FRS candidates that can be used for sensing applications comprises three steps: • 1. Cysteine scan. Mutant glucose-binding proteins containing single cysteines are constructed for site-specific attachment of thiol-reactive fluorophores. […] Candidate positions fall into three classes: endosteric, replacing a residue that contacts the ligand directly; peristeric, located at the rim of the binding site; allosteric (Marvin et al., 1997, Proc Natl Acad Sci USA, 94, 4366-71; Marvin, 1998, J Am Chem Soc, 120, 7-11), located outside the binding site at sites that undergo local structural changes in concert with the hinge-bending motion. • 2. Fluorophore screening. Thiol-reactive, environmentally sensitive fluorophores are attached to each cysteine mutant prepared in step 1. • 3. Evaluation of the glucose-mediated change of all the fluorescent conjugates prepared in step 2. Responses to ligand binding in which there is both a change in fluorescence emission intensity and spectral shape are essential for chemometric applications, because such changes enable ratiometric measurements. Changes in spectral shape typically are accompanied by a shift in the wavelength of the emission intensity maxima. Three classes of fluorescent responses are possible: • i. No response. • ii. Monochromatic response (emission intensity increases or decreases without a change in spectral shape) • iii.
Determination of temperature- and ligand-dependent fluorescence landscapes. […] Temperatures were advanced in 1K steps.
Determination of emission intensity spectra.
2 For a single glucose-binding site, the fractional saturation is given by […]

Molecule | Shape (fluorescence response to glucose) (Badan conjugate) | Shape (fluorescence response to glucose) (Acrylodan conjugate) | other results
A42C Badan: tsGBP2_C42 (SEQ ID NO: 22) Badan conjugate (conjugate, Badan conjugate; tsGBP2_C42 (42C substitution mutant with signal peptide replaced with M and a GGSHHHHHH at C-terminus)) MKLEIFSWWAGDEGPALEALIRLYKQKYPGVEVINATVTGGCGVNAKAVLKTRMLGGDPPDTFQVHAGQELIGTWVVADRMEDLTSLFRQEGWLQAFPKGLIDLLSYKGGIWSVPVNIHRSNVMWYIPAKLKEWGVTPPKTWAEFLATAQTLKRKGLEAPLALGENWTQQHLWESVALATLGADGWNNLWSGKLKFTDPKAVAVWETFGKVLDAANKDAAGLSWQQAVDRVVQGKAAFNIMGDWAAGYMSTTLKLKPGTDFAWTPSPGTSGIFMMLSDSFGLPKGAKNRQNAINWLKLVGSKEGQDTFNPLKGSIAARLDSDPAKYNAYGQSAMKDWKSNRIVGSLVHGAVAPESFMSQFGTVMEIFLQSRNPQAAANAAQAIANQVGLGRGGSHHHHHH | m |  | 
Q64C Badan: tsGBP2_C64 (SEQ ID NO: 23) Badan conjugate (conjugate, Badan conjugate; tsGBP2_C64 (64C substitution mutant with signal peptide replaced with M and a GGSHHHHHH at C-terminus)) MKLEIFSWWAGDEGPALEALIRLYKQKYPGVEVINATVTGGAGVNAKAVLKTRMLGGDPPDTFCVHAGQELIGTWVVADRMEDLTSLFRQEGWLQAFPKGLIDLLSYKGGIWSVPVNIHRSNVMWYIPAKLKEWGVTPPKTWAEFLATAQTLKRKGLEAPLALGENWTQQHLWESVALATLGADGWNNLWSGKLKFTDPKAVAVWETFGKVLDAANKDAAGLSWQQAVDRVVQGKAAFNIMGDWAAGYMSTTLKLKPGTDFAWTPSPGTSGIFMMLSDSFGLPKGAKNRQNAINWLKLVGSKEGQDTFNPLKGSIAARLDSDPAKYNAYGQSAMKDWKSNRIVGSLVHGAVAPESFMSQFGTVMEIFLQSRNPQAAANAAQAIANQVGLGRGGSHHHHHH | m |  | 
Q64C Acrylodan: tsGBP2_C64 (SEQ ID NO: 23) Acrylodan conjugate (conjugate, Acrylodan conjugate; tsGBP2_C64 (64C substitution mutant with signal peptide replaced with M and a GGSHHHHHH at C-terminus)) MKLEIFSWWAGDEGPALEALIRLYKQKYPGVEVINATVTGGAGVNAKAVLKTRMLGGDPPDTFCVHAGQELIGTWVVADRMEDLTSLFRQEGWLQAFPKGLIDLLSYKGGIWSVPVNIHRSNVMWYIPAKLKEWGVTPPKTWAEFLATAQTLKRKGLEAPLALGENWTQQHLWESVALATLGADGWNNLWSGKLKFTDPKAVAVWETFGKVLDAANKDAAGLSWQQAVDRVVQGKAAFNIMGDWAAGYMSTTLKLKPGTDFAWTPSPGTSGIFMMLSDSFGLPKGAKNRQNAINWLKLVGSKEGQDTFNPLKGSIAARLDSDPAKYNAYGQSAMKDWKSNRIVGSLVHGAVAPESFMSQFGTVMEIFLQSRNPQAAANAAQAIANQVGLGRGGSHHHHHH |  | 0 | 
H66C Acrylodan: tsGBP2_C66 (SEQ ID NO: 24) Acrylodan conjugate (conjugate, Acrylodan conjugate; tsGBP2_C66 (66C substitution mutant with signal peptide replaced with M and a GGSHHHHHH at C-terminus)) MKLEIFSWWAGDEGPALEALIRLYKQKYPGVEVINATVTGGAGVNAKAVLKTRMLGGDPPDTFQVCAGQELIGTWVVADRMEDLTSLFRQEGWLQAFPKGLIDLLSYKGGIWSVPVNIHRSNVMWYIPAKLKEWGVTPPKTWAEFLATAQTLKRKGLEAPLALGENWTQQHLWESVALATLGADGWNNLWSGKLKFTDPKAVAVWETFGKVLDAANKDAAGLSWQQAVDRVVQGKAAFNIMGDWAAGYMSTTLKLKPGTDFAWTPSPGTSGIFMMLSDSFGLPKGAKNRQNAINWLKLVGSKEGQDTFNPLKGSIAARLDSDPAKYNAYGQSAMKDWKSNRIVGSLVHGAVAPESFMSQFGTVMEIFLQSRNPQAAANAAQAIANQVGLGRGGSHHHHHH |  | d | 
H119C Acrylodan: tsGBP2_C119 (SEQ ID NO: 25) Acrylodan conjugate (conjugate, Acrylodan conjugate; tsGBP2_C119 (119C substitution mutant with signal peptide replaced with M and a GGSHHHHHH at C-terminus)) MKLEIFSWWAGDEGPALEALIRLYKQKYPGVEVINATVTGGAGVNAKAVLKTRMLGGDPPDTFQVHAGQELIGTWVVADRMEDLTSLFRQEGWLQAFPKGLIDLLSYKGGIWSVPVNICRSNVMWYIPAKLKEWGVTPPKTWAEFLATAQTLKRKGLEAPLALGENWTQQHLWESVALATLGADGWNNLWSGKLKFTDPKAVAVWETFGKVLDAANKDAAGLSWQQAVDRVVQGKAAFNIMGDWAAGYMSTTLKLKPGTDFAWTPSPGTSGIFMMLSDSFGLPKGAKNRQNAINWLKLVGSKEGQDTFNPLKGSIAARLDSDPAKYNAYGQSAMKDWKSNRIVGSLVHGAVAPESFMSQFGTVMEIFLQSRNPQAAANAAQAIANQVGLGRGGSHHHHHH |  | m | Kd (Acrylodan conjugate, read-out: Kd ^appKd): 20 µM; Kd (Acrylodan conjugate, read-out: Kd ^trueKd): 20 µM
H119C Badan: tsGBP2_C119 (SEQ ID NO: 25) Badan conjugate (conjugate, Badan conjugate; tsGBP2_C119 (119C substitution mutant with signal peptide replaced with M and a GGSHHHHHH at C-terminus)) MKLEIFSWWAGDEGPALEALIRLYKQKYPGVEVINATVTGGAGVNAKAVLKTRMLGGDPPDTFQVHAGQELIGTWVVADRMEDLTSLFRQEGWLQAFPKGLIDLLSYKGGIWSVPVNICRSNVMWYIPAKLKEWGVTPPKTWAEFLATAQTLKRKGLEAPLALGENWTQQHLWESVALATLGADGWNNLWSGKLKFTDPKAVAVWETFGKVLDAANKDAAGLSWQQAVDRVVQGKAAFNIMGDWAAGYMSTTLKLKPGTDFAWTPSPGTSGIFMMLSDSFGLPKGAKNRQNAINWLKLVGSKEGQDTFNPLKGSIAARLDSDPAKYNAYGQSAMKDWKSNRIVGSLVHGAVAPESFMSQFGTVMEIFLQSRNPQAAANAAQAIANQVGLGRGGSHHHHHH | m |  | 
H66C Badan: tsGBP2_C66 (SEQ ID NO: 24) Badan conjugate (conjugate, Badan conjugate; tsGBP2_C66 (66C substitution mutant with signal peptide replaced with M and a GGSHHHHHH at C-terminus)) MKLEIFSWWAGDEGPALEALIRLYKQKYPGVEVINATVTGGAGVNAKAVLKTRMLGGDPPDTFQVCAGQELIGTWVVADRMEDLTSLFRQEGWLQAFPKGLIDLLSYKGGIWSVPVNIHRSNVMWYIPAKLKEWGVTPPKTWAEFLATAQTLKRKGLEAPLALGENWTQQHLWESVALATLGADGWNNLWSGKLKFTDPKAVAVWETFGKVLDAANKDAAGLSWQQAVDRVVQGKAAFNIMGDWAAGYMSTTLKLKPGTDFAWTPSPGTSGIFMMLSDSFGLPKGAKNRQNAINWLKLVGSKEGQDTFNPLKGSIAARLDSDPAKYNAYGQSAMKDWKSNRIVGSLVHGAVAPESFMSQFGTVMEIFLQSRNPQAAANAAQAIANQVGLGRGGSHHHHHH | m |  | 
